# Results taken from the nanobody polyreactivity screen of Harvey et al. (2022).
# Assay: yeast display, Sf9 membrane polyspecificity reagent, FACS + sequencing; frameworks hold sequencing errors
# How it was run: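 Galactose-induced (36–48 hours) yeast carrying a synthetic nanobody display library were exposed to 10% biotinylated, detergent-solubilized Sf9 membrane reagent at 4 °C for 1 hour. FACS followed streptavidin microbead enrichment, using low and high (top ~1%) gates for expression (anti-HA) and reagent binding (streptavidin). Colony PCR, MiSeq 2 × 250 sequencing and CDR-length filtering followed. Labels for polyreactivity reflect the gate of origin.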
row,Sequence,polyreactivity (PSR sort gate)
1,QVQHVESGGGLVQAGGSHRLSCAASGRIFPWNTMGRYRQAPGKERELVAGITSGGSTNYADSVKGRFTISRDNAKNTVYLQMKSLKPEDTAVYYCNRDSVGYDYWGQGTQVTVSS,low polyreactivity
2,QVQLVESGGGLVQAGGSLRLSCAASGSIFAVYAMGWYRQAPGNERELVAVITRSGGSTYYADSVKGRFTISRDNAKNTVYLQMNSLKPEDTAVYYCAARTGYGYTRYEYWGQGTQVTVSS,high polyreactivity
3,QVQLVESGGGLVPAGGSLRLSCAASGRTFGYYAMGWYRPAPGKERELVAAITSNGGSTYYADSVKGRFTISRDNAKNTVYLQMNSLKPEDTAVYYCNTGRRNRLYDYDYWGQGTQVTVSS,high polyreactivity
4,QVQLVESGGGLVQAGGSLRLSCAASGFTFGYYAMGWYRPAPGKERELVAGISSSGSRTYYADSVKGRFTISRDNAKNTVYLQMNSLKPEDTAVYYCNKYYSGKSYTGEDYWGQGTQVTVSS,high polyreactivity
5,QVQLVESGGGLVQAGGSLRLSCAASGRTFRYYAMGWYRQAPGKERELVAAITGSGGSTYYADSVKGRFTISRDTAKNTVYLQMNSLKPEDTAVYYCATRWALRWRGGYWGQGTQVTVSS,high polyreactivity
6,QVQLVESGGGLLQAGGTLRLSCAASGSTFSKNAMGWYRQAPGKERELVAAISSRGGNTYYADSVKGRFTISRDNAKNTVYLQMNSLKPEDTAVYYCAKALRTYQRTGWYDYWGQGTQVTVSS,high polyreactivity
7,QVQLVESRGGLVQAGGSLRLSCAASGRTLTAYAMGWYRQAPGKERELVDDISFGGGTTYYADSVKGRFTISSDNAKNTVYLQMNSLKPEDTAVYYCAAANYVDIWDFYWFDDYWGQGTQVTVSS,high polyreactivity
8,QVQLVESGGGLVQAGGSLRLSCAASGTFKWYAMGWYRQAPGKERELVAVISSSGGTTYYADSVKGRFTISRDNAKNTVYLQMNSLKPEDTAVYYCNVVKRRSDWGMDYWGQGTQVTVSS,high polyreactivity
9,QVQLVESGGGLVQSRGSLSLICAASGRTYRTYTMGWYRQSPGKERQFVAAIDRTGGSTYYADSVKGRFTISRDNAKNTVYLQMNSLKPEDTAVYYCAATASYIYWGKIYGYDYWGQGTQVTVSS,high polyreactivity
10,QVQLVESGGGLVQAGGSLRLSCAASGSTFSYNTMGWYRQAPGKERELVASNTRSGGSTNYADSVKGRFTISRDNAKNTVYLQMNSLKPEDTAVYYCAKDYISVWNVRASDYYWYDYWGQGTQVTVSS,low polyreactivity
11,QVQLVESGGGLVQAGGSLRLSCAASGFIFRHYAMGWYRQAPGKEREFVAAISYRGDSTYYADSVKGRFTISRDNAKNTVYLQMNSLKPEDTAVYYCAATYVSSAYYSYDYWGQGTQVTVSS,high polyreactivity
12,QVQLVESGGGLVKAAGSLRLSSAASGSIFSYNAMGWNRQAPGKERELVAAITFTAGNTYYADSVKGRFTISRDNAKNTVYLQMNILKPEDTAVYYCAATIQSYREDDNWGQGTQVTVSS,low polyreactivity
13,QVQLVESGGGLVQAGGSLRLSSAASGRIFYRNAMGWYRQAPGKEREMVAAINWSGGSTYYADSVKGRFTISRDNAKNSVYLQMNSLKPEDTAVYYCAAKPGKTPLTGDRGPYDTGYGYWGQGTQVTVSS,low polyreactivity
14,QVQLVESGGGLVQAGGSLRLSCAASGSISWVYAMGWYRQAPGKERELVAAISNSGGSTYYADSVKGRFTISRDNAKNTVYLQMNSLKPEDTAVYYCAADGYFYYSAFWASPYEYWGQGTQVTVSS,high polyreactivity
15,QVQLVESGGGLVQAGGSLRLSCAASGRIFRYYVMGWYRHAPGKEREFVASISGRGASTYYADSVKGRFTISRDNAKNTVYLLMNSLKPEDTAVYYCNADVWLLSYFPEYDYWGQGTQVTVSS,low polyreactivity
16,QVQLVESGGGLVQAGGSLRLSCAASGSIFWGTAMGWERQAPGKERELVAAISWSGGSTYYADSVKGRFTISRDNAKNTVDLQMHSLKPEDTAVYYCAARFKRVGSIPYYYWGQGTQVTVSS,high polyreactivity
17,QVQLVESGGGLVQAGGSLRLSCAASGRIFRYYAMGWYRQAPGKERELVAAIRSGGSTNYADSVKGRFTISRDNATNTVYLQLNSLKPEDTAVYYCNARYRYFKGGYWGQGTQVTVAS,high polyreactivity
18,QVQLVESGGGLVQSGGILRLSCAATGSIFTSDAMGWYRLAPGKEMELVAAITFSGGDTYYADSVKGRFTISRDNAKNTVYLQMNSLNPEDTAVYYCNADPQQVGAYEYWGQGTQVTLSS,low polyreactivity
19,QDHLVESGGGLVQAGGSLRLSCAASGRTVGIYAMGWYRQAPGKVRELVASISWSGGRTYYADSVKGRFTISRENAKNTVYLQMNSLKPEDTAVYYCAAYGVYYPRSWLYFDWYGYCGQGTQVTVSS,high polyreactivity
20,QVQLVESGGGLVQAGGSLRLSCAASGRTFPYYAMGWYRQAPGKERELVAAITSGGSTYYADSVKGRFTISRDNAKNTVYLQMNSLKPEDTAVYYCNALLGYYRWRRPVDYSYGSWGQGTQVTVSS,high polyreactivity
21,QVQLVESGGGLVQAGGSLRLSCAASGIIFFEYVMGWYRQAPGQERELVAAINRSGGRTYYADSVKGRFTISRDNAKNTVYLQMNSLKPEDTAVYYCAAEHYTGSGGYDYWGHGTQVTVSS,high polyreactivity
22,QVQLVESGGGLVQAGGSLRLSCAASGSIFYRNAMGWYRQAPGKERELVAGITTRGGSTYYADSVKGRFTISRDNAKNTVYLQMNSLKPEDTAVYYCNKYYYYRDSGYWGQGTQVTVSS,high polyreactivity

row,Sequence,polyreactivity (PSR sort gate)
1,QVHLVESGGGLVQAGGSLRLSCAASGSTFYPYAMGWYRQAPGKEREVVAGISRSGGTTYYADSVKGRFTISRDNANNTVYLQMNSLKPEDTAVYYCAVQIPYVYWSYDYWGQGTQVTVSS,low polyreactivity
2,QVQVVESGGGLVQEGGSHRISCAASGRIFFTNAMGWSRQAPGKERELVAAINDVGSTYYADSVKGRFTISRDNAKNTVYLQLNSLKAEDTAVYYCAVQAYGRGRSLKMYYWRQGTQVTVSS,high polyreactivity
3,QVQLVESGGGIVQAGGSLRLSCAGSGRTFLWNAMGWYRQAPGKERELVARINLSGGRTYYADSVKGRFTISRDNAKKTVNLQMNSLKPEDTAFYYCAATVVRYRRDSWGQGTQVTVSS,low polyreactivity
4,QVQLVESGGGLVQAGGSLRLSCAASGRIFSINTMGWYRQAPGKERELVAAISVSGGRTYYADSVKGRFTISRENAKKSVYVQMNSLKPEVTAGYYCGAYGTTRMDYWGQGTQVTVSS,high polyreactivity
5,HVQLVESGGGLVQAGGSLRLSCAASGRTFLVYAMGWDRQAPGKERELVADITRSGGRTYYADSVKGRITISRDNAKNTVYLQINSLKPEDTAVYYCAARPYFVGPIEYDYWGQGTQVTVSS,high polyreactivity
6,QFHLVESGGGLLQAGGSLRLSCAASGRIFYANDMGWYRQAPGKERELLAAISQSGGSTFYADSVKGRFTISRDNAKNTVYLQMNSLKPEDTAVYYCATDYYGPVYDLDYDYWGQGTQVSVSS,low polyreactivity
7,QVQLVESGGGLVQAGGSLRLSCAASGSTFSHNAMGWYRQAPGKERELVAAISSDGTTYYADSVKGRFTISRDNAKNTVYLQMNSLKPEDTAVYYCNKTRWTQRTSFDYWGQGTQVTVSS,low polyreactivity
8,QVQLVESGGGLVQAGGSLRLSCAASGSTFIGNAMGWYRQAPGKERELVADISWSTASTYYADSVKGRFTISRDNAKNTVYLQMNSLKPEDTAVYYCARDPFVYLYLVDYDYWGQGTQVTVSS,low polyreactivity
9,QVQLVESGGGLVQAGGSLRLSCAASGSIFYYYAMGWYRQAPGKERELVAAITSGGSTYYADSVKGRFTISRDNAKNTVYLQMNSLKPEDTAVYYCAAVFYAAYLRYVWYSYDYWGQGTQVTVSS,low polyreactivity
10,QVQLVESGGGIVQAGGRLRLSWAASGNTFDYYAMGWYRQAPWKERELVAAITRGGSTNYADSVKGRFTISRDNAKNTVYLQRNSRKPEDTAVYYCAAEQRAPRGADDDYCGQGTQVTVSS,low polyreactivity
11,QVQLVESGGGLVQAGGSLRLSCAASGRTFHYYAMGWYRQAPGKERELVAAITSSGGSTYYADSVKGRFTISRDNANNTVYLQMNSLKPEDTAVYYFNAYSSYIKYDYWGQGTQVTVSS,high polyreactivity
12,QVQLVESGGGLVQAGGSLRLSCAASGSIFRHNAMGWYRQAPGKERELVAAISRRASSTYYADSVKGRFTISRDNAKNTVYVQMNSLKPEDTAVYYCAVVPSSTYHAYDYWGQGTQVTVSS,high polyreactivity
13,QVQLVESGGGLVQAGGSLRLSCAASGRIFYQNAMGWYRQAPGKERELVAGITRGGSTYYADSVKGRFTISRDNAKNTVYLQMNSLKPEETAVYYCAVAFWRTKWYDYWGQGTQVTVSS,low polyreactivity
14,QVQLVESGGGLVQAGGSLRLSCAASGSIFGQYAMGWYRQAPGKEREYVAAISWRGTSTYYADSVKGRFTISRDNAKNTVYLQMNSLKPEDTAVYYCAGRYVKPSRYKYNYWGQGTQVTVSS,high polyreactivity
15,QVQLVESGGGLVQAGGSLRLSCAASGFTFRAYAMGWYRQAPGKERELVAGISGSGGRTYYADSVKGRFTISRDNAKNTVYLQMNSLKPEDTAVYYCAAEYRLYGYQYDYWGQGTQVTVSS,high polyreactivity
16,QVQLVESGGGLVQAGGRLRLSCAASGFTFVKNAMGWYRQAPGKERELVAAISSRGGSTYYADSVKGRFTISRDNAKNTVYLQMNSLKAEDTAVYYCATERERTMGYWGQGTQVTDSS,high polyreactivity
17,QVQLVESGGGLDQAGGSLRLSCAASGIIFRNYAMGWYRQAPGKERELVATITGDGGSTYYADSVKGRFTISRDNAKNTVYLQMNSLKPEDTAVYYCNADVSKRGWTTYWYGYGYYYWGQGTQVTVSS,low polyreactivity
18,QVQLVESGGGLVQAGGSLRLSCAASGRTFKHYAMGWYRQAPGKERELVAGISRGGGITYYADSVKGRFTISRDNAKNTVYLQMNSLKPDDTAVYYCNAYDLYKSGGDYWGQGTQVTVSS,high polyreactivity
19,QVQLVESGGGLVQAGGSLRLSCAASGSIYLYNAMGWYRQAPGKERELVAVINGRGGTYYADSVKGRFTISRDNAKNNVYLQMNSLKPEDTAVYYCATGYAPSAWYDSVRFEDRDSWGQGTQVTVSS,low polyreactivity
20,QVQLVESGGGLVQAGGSLRLSCAASGFTFAVNAMGWYRQAPGKERELVAAISKSGGRTYYADSVKGRFTISRDNAKNTVYLQMNSLKPEDTAVYYCAADGPGYTYDYWGQGTQVTVSS,high polyreactivity
21,QVQLVESGGGLVQAGGILRLICAASGSIFGKYTMGWYRHAPGKERELVAGITYRAGSTYYADSVKGRFTISRDNAKNTVYLQMNSLKPEDTAVYYCAARFYFRWYYYGSYANYWGQGTQVTVSS,high polyreactivity
